Columns and labels:
Assay in all cases: cell-based or functional assay
[1] = target: HIV envelope protein (env, gp160/gp120) of HIV strain IIIB on infected cells and virus (HIV strain IIIB) (UniProt P04578)
[2] = target: HIV env gp160 stably expressed on mouse melanoma B16 cells (gp160-B16) (HIV (strain not stated))
[3] = target: ErbB2 receptor on SKBR3 breast cancer cells (UniProt P04626)

| delivery of FITC-siRNA into cells (flow cytometry) [3] | Substance | reduction of HIV infection in primary CD4 T cells (p24 Ag ELISA of culture supernatants) [1] [%] | reduction of HIV replication in infected primary CD4 cells (F105 + gag siRNA condition) [1] [%] | uptake of FITC-siRNA by implanted tumor cells after intravenous injection (fluorescence microscopy) [2] | reduction of HIV replication in infected primary CD4 cells (F105-P + irrelevant GFP siRNA condition) [1] [%] | uptake of FITC-CD4 siRNA by an HIV IIIB-infected Jurkat culture, 24 h (flow cytometry) [1] | uptake of FITC-labeled siRNA by HIV-infected Jurkat cells (flow cytometry) (% of infected cells) [1] |
| --- | --- | --- | --- | --- | --- | --- | --- |
|  | F105 (antibody Fab fragment against HIV envelope, lacking protamine) | 30 | 25 to 28 |  |  |  |  |
|  | F105-protamine (Fab fragment of human anti-HIV gp120 antibody F105, heavy chain fused at its C-terminus to full-length protamine) (from UniProt P04553 1-51) | 30 |  | 30 % of cells | 25 to 28 | 21 % of cells | 40 |
| 32 % of cells | single chain ErbB2 antibody protamine fusion protein ML39 ScFv-P (from UniProt P04553 8-29) |  |  |  |  |  |  |

Source: patent publication US20080153737A1
